{
  "source": "paper PMC9058210",
  "about": "(Nature chemical biology, 2022)",
  "proteins": {"B1": {"name": "SalC (enzyme, Salinispora tropica CNB440)", "chain": "MSEAVERNYDPGDVAIIGASCRFPGARNKEQYWDNLLHGREGVTFYAKDEIEVDETLINSPAYVRATGALDGYDEFDPAVFGVSDRMAAAMTPEHRVFLEASWEVMEDASYDPERVRGEVGVYASTNPQSAALYSSPPDWVSAGPEVMDRSNAWLPDTITSNVLYYLGLTGEAVTVTAVCSGFHYAVHLACQSLLLGQTDMAIAGGVMVRLPQRRGYLWEEGRILSRDGHCRPFDANGTGSVLASGVAVVLLKPLPQAVADRDHIYATVKGTAINNNGISAMAYGLAQPERLSACIAGAMQAGDVAPETVSMYEANGFGMPITDSLEVHAAHLAFGKQSGTCSIGAVKGNIGHAGVVAGGSGAVKAAFALYHRSLPPTINLTELNEEIDFPRTPFVPQLEPAAWQPECGIRRAGITALGGGGYNAHLVLEEPPRPVEREPENRRPRIVTLSALDDAAVSRQRAALSSWLAEHSDARLDDIAYSLNLGRKALPSRWAAVISTRDELLEVLSGDGKSGRVSRFGQERRADLARFRRTEDGLALGSGDEMRDVQALTELAAAWVQGERVNFEVLHADERSHRISLPNYPFARRRFWRTDW"}},
  "molecular_target": "the molecule itself",
  "assay": "crystal structure",
  "data": [
    {"protein": "B1", "values": [
      {"measurement": "stoichiometry N", "result": 4}
    ]}
  ]
}
